Test results: publication PMC6086891, “Adenosine Kinase couples sensing of cellular potassium depletion to purine metabolism” (Scientific Reports, 2018)

Substrate: Nc1ncnc2c1ncn2[C@@H]1O[C@H](COP(=O)(O)OP(=O)(O)OP(=O)(O)O)[C@@H](O)[C@H]1O
Test: purified protein
Type: biochemical, Mus musculus
Details: Mg2+ BS1 (ATP site); adenosine competes with ATP

B1: Adenosine Kinase (mADK) (Mus musculus) (protein)
chain: MAAADEPKPKKLKVEAPQALSENVLFGMGNPLLDISAVVDKDFLDKYSLKPNDQILAEDKHKELFDELVKKFKVEYHAGGSTQNSMKVAQWLIQEPHKAATFFGCIGIDKFGEILKRKAADAHVDAHYYEQNEQPTGTCAACITGGNRSLVANLAAANCYKKEKHLDLERNWVLVEKARVYYIAGFFLTVSPESVLKVARYAAENNRVFTLNLSAPFISQFFKEALMDVMPYVDILFGNETEAATFAREQGFETKDIKEIAKKAQALPKVNSKRQRTVIFTQGRDDTIVAAENDVTAFPVLDQNQEEIIDTNGAGDAFVGGFLSQLVSDKPLTECIRAGHYAASVIIRRTGCTFPEKPDFH
Km: 2.1 µM
